This note sets out measurements from the Human Domainome abundance scans (Beltran et al. 2025).

± gives the uncertainty stated by the source.

A short description of this data set: abundance fitness (aPCA) (normalised: wild type 0, dead -1); higher = more abundant; growth selection in yeast, the domain comes from the species named. The note with it: Homo sapiens.
“DnaJ homolog subfamily B member 1 G14R, P25685” had an abundance fitness of -0.274 ± 0.056.

Turning to “DnaJ homolog subfamily B member 1 G14S, P25685”, the abundance fitness is -0.126 ± 0.042.

Consider “DnaJ homolog subfamily B member 1 G14T, P25685”, for which the abundance fitness is -0.072 ± 0.092.

Turning to “DnaJ homolog subfamily B member 1 G14V, P25685”, the abundance fitness was -0.241 ± 0.11.

In turn, “DnaJ homolog subfamily B member 1 G14Y, P25685” yielded an abundance fitness of -0.378 ± 0.32.

For the substance “DnaJ homolog subfamily B member 1 G40A, P25685”, the abundance fitness is -0.128 ± 0.1.

Take “DnaJ homolog subfamily B member 1 G40C, P25685”: the abundance fitness is -0.113 ± 0.16.

With “DnaJ homolog subfamily B member 1 G40D, P25685”, the abundance fitness is -0.301 ± 0.078.

Substance “DnaJ homolog subfamily B member 1 G40E, P25685” showed an abundance fitness of -0.194 ± 0.1.

“DnaJ homolog subfamily B member 1 G40F, P25685” showed an abundance fitness of -0.049 ± 0.13.

Take “DnaJ homolog subfamily B member 1 G40H, P25685”: the abundance fitness is -0.131 ± 0.15.

In turn, “DnaJ homolog subfamily B member 1 G40I, P25685” displayed an abundance fitness of -0.026 ± 0.13.

For the substance “DnaJ homolog subfamily B member 1 G40K, P25685”, the abundance fitness stood at 0.005 ± 0.15.

Substance “DnaJ homolog subfamily B member 1 G40L, P25685” showed an abundance fitness of -0.188 ± 0.1.

In turn, “DnaJ homolog subfamily B member 1 G40M, P25685” registered an abundance fitness of -0.14 ± 0.1.

Substance “DnaJ homolog subfamily B member 1 G40N, P25685” returned an abundance fitness of -0.173 ± 0.18.

In turn, “DnaJ homolog subfamily B member 1 G40P, P25685” gave an abundance fitness of -0.248 ± 0.12.

“DnaJ homolog subfamily B member 1 G40Q, P25685” gave an abundance fitness of -0.103 ± 0.14.

“DnaJ homolog subfamily B member 1 G40R, P25685” registered an abundance fitness of -0.041 ± 0.088.

Substance “DnaJ homolog subfamily B member 1 G40S, P25685” gave an abundance fitness of -0.195 ± 0.086.

“DnaJ homolog subfamily B member 1 G40V, P25685” showed an abundance fitness of -0.133 ± 0.079.

On to “DnaJ homolog subfamily B member 1 G40Y, P25685”, for which the abundance fitness was -0.182 ± 0.15.

“DnaJ homolog subfamily B member 1 H32A, P25685” gave an abundance fitness of -0.154 ± 0.16.

Consider “DnaJ homolog subfamily B member 1 H32C, P25685”, for which the abundance fitness is -0.106 ± 0.14.

As to “DnaJ homolog subfamily B member 1 H32D, P25685”, the abundance fitness is -0.241 ± 0.23.

For the substance “DnaJ homolog subfamily B member 1 H32E, P25685”, the abundance fitness was 0.035 ± 0.091.

“DnaJ homolog subfamily B member 1 H32F, P25685” returned an abundance fitness of -0.139 ± 0.16.

The substance “DnaJ homolog subfamily B member 1 H32G, P25685” gave an abundance fitness of -0.007 ± 0.072.

In turn, “DnaJ homolog subfamily B member 1 H32I, P25685” registered an abundance fitness of -0.246 ± 0.12.

The substance “DnaJ homolog subfamily B member 1 H32K, P25685” came in with an abundance fitness of -0.777 ± 0.16.

For “DnaJ homolog subfamily B member 1 H32L, P25685”, the abundance fitness was -0.025 ± 0.082.

Consider “DnaJ homolog subfamily B member 1 H32M, P25685”, for which the abundance fitness came to 0.014 ± 0.089.

In the case of “DnaJ homolog subfamily B member 1 H32N, P25685”, the abundance fitness is 0.017 ± 0.15.

For “DnaJ homolog subfamily B member 1 H32P, P25685”, the abundance fitness was -0.199 ± 0.14.

Substance “DnaJ homolog subfamily B member 1 H32R, P25685” had an abundance fitness of -0.057 ± 0.061.

“DnaJ homolog subfamily B member 1 H32S, P25685”: the abundance fitness amounted to 0.05 ± 0.073.

Substance “DnaJ homolog subfamily B member 1 H32T, P25685” came in with an abundance fitness of -0.048 ± 0.072.

“DnaJ homolog subfamily B member 1 H32W, P25685” came in with an abundance fitness of -0.155 ± 0.075.

“DnaJ homolog subfamily B member 1 H32Y, P25685” came in with an abundance fitness of -0.192 ± 0.21.

“DnaJ homolog subfamily B member 1 I20A, P25685” returned an abundance fitness of -0.63 ± 0.092.

As for “DnaJ homolog subfamily B member 1 I20C, P25685”, the abundance fitness was -0.431 ± 0.079.

In turn, “DnaJ homolog subfamily B member 1 I20D, P25685” returned an abundance fitness of -0.766 ± 0.17.

With “DnaJ homolog subfamily B member 1 I20E, P25685”, the abundance fitness was -0.956 ± 0.15.

Turning to “DnaJ homolog subfamily B member 1 I20F, P25685”, the abundance fitness is -0.708 ± 0.1.

“DnaJ homolog subfamily B member 1 I20G, P25685” gave an abundance fitness of -0.9 ± 0.071.

On to “DnaJ homolog subfamily B member 1 I20H, P25685”, for which the abundance fitness is -0.948 ± 0.13.

For the substance “DnaJ homolog subfamily B member 1 I20K, P25685”, the abundance fitness was -0.86 ± 0.087.

“DnaJ homolog subfamily B member 1 I20L, P25685” displayed an abundance fitness of -0.143 ± 0.076.

“DnaJ homolog subfamily B member 1 I20M, P25685” registered an abundance fitness of -0.575 ± 0.12.

Consider “DnaJ homolog subfamily B member 1 I20N, P25685”, for which the abundance fitness is -1.02 ± 0.11.

Substance “DnaJ homolog subfamily B member 1 I20P, P25685” had an abundance fitness of -1.26 ± 0.17.

In turn, “DnaJ homolog subfamily B member 1 I20Q, P25685” yielded an abundance fitness of -0.759 ± 0.13.

In turn, “DnaJ homolog subfamily B member 1 I20R, P25685” registered an abundance fitness of -0.832 ± 0.06.

In turn, “DnaJ homolog subfamily B member 1 I20S, P25685” came in with an abundance fitness of -0.782 ± 0.061.

In turn, “DnaJ homolog subfamily B member 1 I20W, P25685” had an abundance fitness of -1.42 ± 0.12.

“DnaJ homolog subfamily B member 1 I48A, P25685”: the abundance fitness was -0.108 ± 0.079.

“DnaJ homolog subfamily B member 1 I48C, P25685” yielded an abundance fitness of -0.073 ± 0.11.

Substance “DnaJ homolog subfamily B member 1 I48D, P25685” returned an abundance fitness of -0.667 ± 0.12.

Turning to “DnaJ homolog subfamily B member 1 I48E, P25685”, the abundance fitness is -0.697 ± 0.095.

The substance “DnaJ homolog subfamily B member 1 I48F, P25685” returned an abundance fitness of -0.41 ± 0.13.

The substance “DnaJ homolog subfamily B member 1 I48G, P25685” displayed an abundance fitness of -0.615 ± 0.065.

“DnaJ homolog subfamily B member 1 I48H, P25685” showed an abundance fitness of -0.561 ± 0.12.

The substance “DnaJ homolog subfamily B member 1 I48K, P25685” came in with an abundance fitness of -0.329 ± 0.2.

Consider “DnaJ homolog subfamily B member 1 I48L, P25685”, for which the abundance fitness is -0.089 ± 0.072.

In turn, “DnaJ homolog subfamily B member 1 I48M, P25685” displayed an abundance fitness of -0.111 ± 0.099.

For “DnaJ homolog subfamily B member 1 I48P, P25685”, the abundance fitness is -0.561 ± 0.1.
